Experimental data taken from patent US20150196651A1 (published 2015).
Numbered stars: 1 amine (or outer) side, 2 acyl side, 3 side chain; on linkers, the order of the positions; unused ones are H or OH. Square brackets hold non-standard residues; d marks the D form. Side chains are listed from the residue outwards. Ends that are not written are not given here. * marks the point of attachment. γGlu = O=C(O)[C@H](CCC(=O)[*:2])N[*:1]; Palmitoyl = CCCCCCCCCCCCCCCC(=O)*; Myristoyl = CCCCCCCCCCCCCC(=O)*; NMeA = CN[C@@H](C)C(=O)O; Sar = CNCC(=O)O

T1: human PrRP receptor GPR10 (human, UniProt P49683 1-370)
T1 construct: whole, on cells; also called GPR10 human receptor transfected in CHO cells; human GPR10 receptor
T1 sequence (looked up): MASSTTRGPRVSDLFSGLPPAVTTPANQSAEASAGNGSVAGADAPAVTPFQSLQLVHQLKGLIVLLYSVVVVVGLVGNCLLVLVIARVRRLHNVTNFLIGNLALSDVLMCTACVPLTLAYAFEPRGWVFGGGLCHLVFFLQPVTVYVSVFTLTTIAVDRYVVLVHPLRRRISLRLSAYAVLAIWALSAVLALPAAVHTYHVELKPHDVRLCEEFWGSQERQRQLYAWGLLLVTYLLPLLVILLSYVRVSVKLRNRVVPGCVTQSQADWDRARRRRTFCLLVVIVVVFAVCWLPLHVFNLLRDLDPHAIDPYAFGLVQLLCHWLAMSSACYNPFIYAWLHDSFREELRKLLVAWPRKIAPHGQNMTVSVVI

T2: rat PrRP receptor in RC-4B/C cells (rat, UniProt Q64121 1-370)
T2 construct: whole, on cells; endogenous receptor of RC-4B/C cells (ATCC); also called rat receptor; GPR10 receptor expressed in rat hypophyseal cells
T2 sequence (looked up): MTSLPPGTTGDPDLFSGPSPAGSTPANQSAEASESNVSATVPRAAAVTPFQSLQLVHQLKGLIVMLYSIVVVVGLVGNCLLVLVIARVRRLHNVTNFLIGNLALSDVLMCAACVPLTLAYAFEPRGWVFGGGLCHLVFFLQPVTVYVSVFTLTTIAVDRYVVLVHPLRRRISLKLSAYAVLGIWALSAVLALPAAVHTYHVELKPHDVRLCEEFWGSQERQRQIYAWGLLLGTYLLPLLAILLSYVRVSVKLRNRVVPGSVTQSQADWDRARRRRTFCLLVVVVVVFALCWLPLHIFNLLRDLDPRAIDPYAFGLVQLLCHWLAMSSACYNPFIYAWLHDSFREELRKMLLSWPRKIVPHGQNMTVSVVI


Legend:
[1] = target: T1, human PrRP receptor GPR10; test: competition with 125I-human PrRP31, CHO cells with human GPR10
Method: CHO cells transfected with human PrRP receptor GPR10 (Perkin Elmer, USA) were grown on 24-well plates coated with polyethyleneimine. […] The following agents were used for the experiment: binding buffer (25 mmol.1⁻¹ Tris, pH 7.4; 118 mmol.1⁻¹ NaCl, 10 mmol.1⁻¹ MgCl₂, 1 mmol.1⁻¹ CaCl₂, 5.5 mmol.1⁻¹ glucose, 0.5 mg/ml BSA), unlabeled analogs of PrRP (i.e. the analog being tested) at a final concentration between 10⁻¹¹ to 10⁻⁴ mol.1⁻¹, and radiolabeled human ¹²⁵1-PrRP31 at a final concentration of 5×10⁻¹¹ mol.1⁻¹.
(§1) Plates were incubated for 60 minutes at room temperature. After incubation, the cells were solubilized in 0.1 mol/l solution of NaOH, and the radioactivity bound to the cells was counted using a γ-counter. The experiments were performed in duplicate, and repeated at least three times.

[2] = target: T2, rat PrRP receptor in RC-4B/C cells; test: competition with 125I-rat PrRP31, RC-4B/C cells
Method: The rat pituitary cell line RC-4B/C (ATCC, Manassas, USA) was grown on 24-well plates which had their bottom coated with polyethyleneimine. The cells were grown to the optimal density of 300-450 thousand cells per well.
as §1

| % of PrRP31 [1] [%] | Ki [1] [nM] | % of PrRP31 [2] [%] | Ki [2] [nM] | Binder |
| --- | --- | --- | --- | --- |
| 45 | 8.72 | 10 | 49.4 | TPDINPAWY[NMeA]SRGIRPVGRF-NH2 (N-terminus assumed; SMILES CC[C@H](C)[C@H](NC(=O)CNC(=O)[C@H](CCCNC(=N)N)NC(=O)[C@H](CO)NC(=O)[C@H](C)N(C)C(=O)[C@H](Cc1ccc(O)cc1)NC(=O)[C@H](Cc1c[nH]c2ccccc12)NC(=O)[C@H](C)NC(=O)[C@@H]1CCCN1C(=O)[C@H](CC(N)=O)NC(=O)[C@@H](NC(=O)[C@H](CC(=O)O)NC(=O)[C@@H]1CCCN1C(=O)[C@@H](N)[C@@H](C)O)[C@@H](C)CC)C(=O)N[C@@H](CCCNC(=N)N)C(=O)N1CCC[C@H]1C(=O)N[C@H](C(=O)NCC(=O)N[C@@H](CCCNC(=N)N)C(=O)N[C@@H](Cc1ccccc1)C(N)=O)C(C)C) [analog no. 29] |
| 125 | 3.12 | 1540 | 0.32 | Myristoyl-TPDINPAWYTGR[Sar]IRPVGRF-NH2 (SMILES CCCCCCCCCCCCCC(=O)N[C@H](C(=O)N1CCC[C@H]1C(=O)N[C@@H](CC(=O)O)C(=O)N[C@H](C(=O)N[C@@H](CC(N)=O)C(=O)N1CCC[C@H]1C(=O)N[C@@H](C)C(=O)N[C@@H](Cc1c[nH]c2ccccc12)C(=O)N[C@@H](Cc1ccc(O)cc1)C(=O)N[C@H](C(=O)NCC(=O)N[C@@H](CCCNC(=N)N)C(=O)N(C)CC(=O)N[C@H](C(=O)N[C@@H](CCCNC(=N)N)C(=O)N1CCC[C@H]1C(=O)N[C@H](C(=O)NCC(=O)N[C@@H](CCCNC(=N)N)C(=O)N[C@@H](Cc1ccccc1)C(N)=O)C(C)C)[C@@H](C)CC)[C@@H](C)O)[C@@H](C)CC)[C@@H](C)O) [analog no. 28] |
| 65 | 5.95 | 57 | 4.23 | SRTHRHSMEIK([γGlu-Palmitoyl])TPDINPAWYASRGIRPVGRF-NH2 (also called compound 52) [analog no. 52] |
| 86 | – | 207 | 2.38 | SRTHRHSMEIRTPDINPAWYASRGIRPVGRF-NH2 (synthetic peptide) [Human PrRP31] |
| 103 | 3.79 | 575 | 0.41 | SETHRHSMEIKTPDINPAWYASRGIRPVGRF (K(N-POE(N-palm)) at residue 11; C-terminal amide) [analog no. 58] |
| 57 | – | 119 | 0.5 | SRTHRHSMEIRTPDINPAWYASRGIRPVGRF ((N-palm)γ-E at the N-terminus (palmitoyl through gamma-glutamic acid); C-terminal amide) [analog no. 54] |
| 83 | – | 1030 | 0.48 | Myristoyl-SRTHRHSMEIRTPDINPAWYASRGIRPVGRF-NH2 (SMILES CCCCCCCCCCCCCC(=O)N[C@@H](CO)C(=O)N[C@@H](CCCNC(=N)N)C(=O)N[C@H](C(=O)N[C@@H](Cc1c[nH]cn1)C(=O)N[C@@H](CCCNC(=N)N)C(=O)N[C@@H](Cc1c[nH]cn1)C(=O)N[C@@H](CO)C(=O)N[C@@H](CCSC)C(=O)N[C@@H](CCC(=O)O)C(=O)N[C@H](C(=O)N[C@@H](CCCNC(=N)N)C(=O)N[C@H](C(=O)N1CCC[C@H]1C(=O)N[C@@H](CC(=O)O)C(=O)N[C@H](C(=O)N[C@@H](CC(N)=O)C(=O)N1CCC[C@H]1C(=O)N[C@@H](C)C(=O)N[C@@H](Cc1c[nH]c2ccccc12)C(=O)N[C@@H](Cc1ccc(O)cc1)C(=O)N[C@@H](C)C(=O)N[C@@H](CO)C(=O)N[C@@H](CCCNC(=N)N)C(=O)NCC(=O)N[C@H](C(=O)N[C@@H](CCCNC(=N)N)C(=O)N1CCC[C@H]1C(=O)N[C@H](C(=O)NCC(=O)N[C@@H](CCCNC(=N)N)C(=O)N[C@@H](Cc1ccccc1)C(N)=O)C(C)C)[C@@H](C)CC)[C@@H](C)CC)[C@@H](C)O)[C@@H](C)CC)[C@@H](C)O) [analog no. 42] |
| 185 | 2.1 | 1070 | 0.46 | Myristoyl-TPDINPAWY[NMeA]SRGIRPVGRF-NH2 (SMILES CCCCCCCCCCCCCC(=O)N[C@H](C(=O)N1CCC[C@H]1C(=O)N[C@@H](CC(=O)O)C(=O)N[C@H](C(=O)N[C@@H](CC(N)=O)C(=O)N1CCC[C@H]1C(=O)N[C@@H](C)C(=O)N[C@@H](Cc1c[nH]c2ccccc12)C(=O)N[C@@H](Cc1ccc(O)cc1)C(=O)N(C)[C@@H](C)C(=O)N[C@@H](CO)C(=O)N[C@@H](CCCNC(=N)N)C(=O)NCC(=O)N[C@H](C(=O)N[C@@H](CCCNC(=N)N)C(=O)N1CCC[C@H]1C(=O)N[C@H](C(=O)NCC(=O)N[C@@H](CCCNC(=N)N)C(=O)N[C@@H](Cc1ccccc1)C(N)=O)C(C)C)[C@@H](C)CC)[C@@H](C)CC)[C@@H](C)O) [analog no. 30] |
| 70 | 5.56 | 143 | 3.44 | TPDINPAWYTGRGIRPVGRF-NH2 (synthetic peptide) [Rat PrRP20] |
| 133 | 2.93 | 632 | 0.78 | Myristoyl-TPDINPAWYTGRGIRPVGRF-NH2 (SMILES CCCCCCCCCCCCCC(=O)N[C@H](C(=O)N1CCC[C@H]1C(=O)N[C@@H](CC(=O)O)C(=O)N[C@H](C(=O)N[C@@H](CC(N)=O)C(=O)N1CCC[C@H]1C(=O)N[C@@H](C)C(=O)N[C@@H](Cc1c[nH]c2ccccc12)C(=O)N[C@@H](Cc1ccc(O)cc1)C(=O)N[C@H](C(=O)NCC(=O)N[C@@H](CCCNC(=N)N)C(=O)NCC(=O)N[C@H](C(=O)N[C@@H](CCCNC(=N)N)C(=O)N1CCC[C@H]1C(=O)N[C@H](C(=O)NCC(=O)N[C@@H](CCCNC(=N)N)C(=O)N[C@@H](Cc1ccccc1)C(N)=O)C(C)C)[C@@H](C)CC)[C@@H](C)O)[C@@H](C)CC)[C@@H](C)O) [analog no. 1] |
| 671 | 0.58 | 587 | 0.84 | Myristoyl-TPDINPAWYASRPFRPVGRF-NH2 (SMILES CCCCCCCCCCCCCC(=O)N[C@H](C(=O)N1CCC[C@H]1C(=O)N[C@@H](CC(=O)O)C(=O)N[C@H](C(=O)N[C@@H](CC(N)=O)C(=O)N1CCC[C@H]1C(=O)N[C@@H](C)C(=O)N[C@@H](Cc1c[nH]c2ccccc12)C(=O)N[C@@H](Cc1ccc(O)cc1)C(=O)N[C@@H](C)C(=O)N[C@@H](CO)C(=O)N[C@@H](CCCNC(=N)N)C(=O)N1CCC[C@H]1C(=O)N[C@@H](Cc1ccccc1)C(=O)N[C@@H](CCCNC(=N)N)C(=O)N1CCC[C@H]1C(=O)N[C@H](C(=O)NCC(=O)N[C@@H](CCCNC(=N)N)C(=O)N[C@@H](Cc1ccccc1)C(N)=O)C(C)C)[C@@H](C)CC)[C@@H](C)O) [analog no. 34] |
| 46 | 8.47 | 68 | 7.21 | Myristoyl-TPDINPAWYTGRGARPFGRF-NH2 (SMILES CCCCCCCCCCCCCC(=O)N[C@H](C(=O)N1CCC[C@H]1C(=O)N[C@@H](CC(=O)O)C(=O)N[C@H](C(=O)N[C@@H](CC(N)=O)C(=O)N1CCC[C@H]1C(=O)N[C@@H](C)C(=O)N[C@@H](Cc1c[nH]c2ccccc12)C(=O)N[C@@H](Cc1ccc(O)cc1)C(=O)N[C@H](C(=O)NCC(=O)N[C@@H](CCCNC(=N)N)C(=O)NCC(=O)N[C@@H](C)C(=O)N[C@@H](CCCNC(=N)N)C(=O)N1CCC[C@H]1C(=O)N[C@@H](Cc1ccccc1)C(=O)NCC(=O)N[C@@H](CCCNC(=N)N)C(=O)N[C@@H](Cc1ccccc1)C(N)=O)[C@@H](C)O)[C@@H](C)CC)[C@@H](C)O) [analog no. 32] |
| 225 | 1.73 | 230 | 2.14 | TPDINPAWYASRPFRPVGRF-NH2 [analog no. 33] |
| 0.7 | 583 | 0.8 | 655 | TPDINPAWYTGRGARPFGRF-NH2 [analog no. 31] |
